What all share (experiment): MST; Monolith NT.115; TaMTB labelled with the protein labelling kit RED in PBS, ligand (NIb) in a concentration gradient; Kd-Fit; three repeats
In assay [1] the target is TaMTB(SNP176^A) protein purified from E. coli (Triticum aestivum).
The target in assay [2] is TaMTB(SNP176^C) protein purified from E. coli (Triticum aestivum).
Assay [3] concerns the target TaMTB-His (from E. coli) (Triticum aestivum (cv. Yangmai158 cDNA)).

B1: NIb protein purified from E. coli (natural protein)
chain: ASDILSKINNSILGFGSDLKGQLVQPITPALRTRFEALFGGGSFELVGTMNKGLIDKHTIVGENDNVHDFMREHPTFAWLQGFMDEYAPSVLNYTAYYKDLCKYNRKKHQLSFNPHELRSATAGMIRMLEDAGLTQGDVRTPQQVVSDMQWNTSAGPSYQGKKRDVCAHLSEQEVLHLAETSRQQFLACNSIGIWNGSLKAELRTIEKVEAEKTRVFTASPITSLFAMKFYVDDFNKKFYATNLKAPHTVGINKFSRGWEMLHDKLNRPGWLHGSGDGSRFDSSIDPFFFDIIKEIRKHFLPVEHHRAIDLIYDEILNTNICLANGMVIRKNVGNNSGQPSTVVDNTLVLMVSFLYAYIHKTGDHMLKKLNDRFVFVCNGDDNKFAISPEFDAEFGHDFSPELTELGLTYEFDDITDDICANPYMSLTMVRTPFGIGFSLPVERIVAIMQWAKKGGVLHSYLAGISAIYESFNTPKLFKSVYAYLLWLTEEHGSDILAAMTGTATALPIPSMLDVYRLHYGDSSIELQ
modifications: not checked
Regarding B1, the Kd (in general, the constant that tells how readily two partners part at equilibrium) was found to be 730 nM in assay [1], 110 nM in assay [2] and 1120 nM in assay [3].

These data come from PMC9629889.
